Assay results reported in PMC6386767, “Characterization of recombinant fructose-1,6-bisphosphatase gene mutations: evidence of inhibition/activation of FBPase protein by gene mutation” (Bioscience Reports, 2019).
Positions count from the first letter of the chain named. Names may count otherwise.

Substrate: O=C(COP(=O)(O)O)[C@@H](O)[C@H](O)[C@H](O)COP(=O)(O)O
Assay: purified protein, by the assay type
Settings: apparent Km for substrate FBP, pH 7.5, 37.0 °C
[1] = other: enzyme M177A_2 (second clone)

B1: pig kidney FBPase L73A (Sus scrofa; L74A) (protein)
chain: MTDQAAFDTNIVTLTRFVMEEGRKARGTGEMTQLLNSLCTAVKAISTAVRKAGIAHLYGIAGSTNVTGDQVKKADVLSNDLVINVLKSSFATCVLVSEEDKNAIIVEPEKRGKYVVCFDPLDGSSNIDCLVSIGTIFGIYRKNSTDEPSEKDALQPGRNLVAAGYALYGSATMLVLAMVNGVNCFMLDPAIGEFILVDRDVKIKKKGSIYSINEGYAKEFDPAITEYIQRKKFPPDNSAPYGARYVGSMVADVHRTLVYGGIFMYPANKKSPKGKLRLLYECNPMAYVMEKAGGLATTGKEAVLDIVPTDIHQRAPIILGSPEDVTELLEIYQKHAAK
other: enzyme L73A
  Km: 5.10 (± 0.3) µM
  Vmax: 50.5 µM/min
  kcat: 22.5 s⁻¹
  kcat/Km: 4.41e+06 M⁻¹ s⁻¹

B2: pig kidney FBPase WT (Sus scrofa) (protein)
chain: B1 chain with A74L
other: enzyme WT
  Km: 4.80 (± 0.5) µM
  Vmax: 41.8 µM/min
  kcat: 20.5 s⁻¹
  kcat/Km: 4.3e+06 M⁻¹ s⁻¹

B3: pig kidney FBPase K112A (Sus scrofa; K113A) (protein)
chain: B1 chain with A74L, K113A
other: enzyme K112A
  Km: 3.25 (± 0.2) µM
  Vmax: 54.7 µM/min
  kcat: 26.8 s⁻¹
  kcat/Km: 8.25e+06 M⁻¹ s⁻¹

B4: pig kidney FBPase Y113A (Sus scrofa; Y114A) (protein)
chain: B1 chain with A74L, Y114A
other: enzyme Y113A
  Km: 2.50 (± 0.3) µM
  Vmax: 55.5 µM/min
  kcat: 27.2 s⁻¹
  kcat/Km: 1.09e+07 M⁻¹ s⁻¹

B5: pig kidney FBPase M177A (Sus scrofa; M178A) (protein)
chain: B1 chain with A74L, M178A
other: enzyme M177A_1
  Km: 4.20 (± 0.6) µM
  Vmax: 26.1 µM/min
  kcat: 12.8 s⁻¹
  kcat/Km: 3.1e+06 M⁻¹ s⁻¹
[1]
  Km: 4.80 (± 0.5) µM
  Vmax: 23.4 µM/min
  kcat: 11.5 s⁻¹
  kcat/Km: 2.4e+06 M⁻¹ s⁻¹

B6: pig kidney FBPase Y164A (Sus scrofa; Y165A) (protein)
chain: B1 chain with A74L, Y165A
other: enzyme Y164A
  Km: 5.30 (± 0.6) µM
  Vmax: 27.5 µM/min
  kcat: 13.5 s⁻¹
  kcat/Km: 2.6e+06 M⁻¹ s⁻¹

B7: pig kidney FBPase M248D (Sus scrofa; M249D) (protein)
chain: B1 chain with A74L, M249D
other: enzyme M248D
  Km: 1.25 (± 0.4) µM
  Vmax: 62.2 µM/min
  kcat: 30.5 s⁻¹
  kcat/Km: 2.44e+07 M⁻¹ s⁻¹

B8: pig kidney FBPase L56A (Sus scrofa; L57A) (protein)
chain: B1 chain with L57A, A74L
other: enzyme L56A
  Km: 5.20 (± 0.2) µM
  Vmax: 52.3 µM/min
  kcat: 25.6 s⁻¹
  kcat/Km: 4.9e+06 M⁻¹ s⁻¹
